Test results from article PMC9643425, “Structural model for ligand binding and channel opening of an insect gustatory receptor” (The Journal of Biological Chemistry, 2022).
Values joined by “and” are separate entries in the source; they are usually repeats but may differ in a detail not shown here. Identical values can stand only once. Blank lines part the entries; values can stand above or below the molecule they belong to.

Assays:
[1] = target: meGFP-BmGr9 (Bombyx mori (silkworm)); assay: single-molecule imaging, counting of photobleaching steps (TIRF microscopy); meGFP-BmGr9 on the plasma membrane of Xenopus oocytes; bleaching steps at single spots (n = 569) fitted with binomial distributions of tetramer, pentamer and hexamer models
[2] = target: BmGr9 silkworm gustatory receptor (Bombyx mori (silkworm)); assay: cross-linking; HEK293T cells expressing BmGr9 incubated with various concentrations of disuccinimidyl suberate (DSS) at 37 °C for 15 min; lysed in 0.1% RIPA buffer; SDS-PAGE with 5 M urea; Western blot with anti-BmGr9 antibody
[3] = target: T1, BmGr9 (Bombyx mori, UniProt B3GTD7, I440C); assay: two-electrode voltage clamp in Xenopus oocytes, […] MTSET, cysteine modification; assay type: cell-based
T1 construct: gene Gr9; full-length
T1 sequence (B3GTD7 1-449 I440C): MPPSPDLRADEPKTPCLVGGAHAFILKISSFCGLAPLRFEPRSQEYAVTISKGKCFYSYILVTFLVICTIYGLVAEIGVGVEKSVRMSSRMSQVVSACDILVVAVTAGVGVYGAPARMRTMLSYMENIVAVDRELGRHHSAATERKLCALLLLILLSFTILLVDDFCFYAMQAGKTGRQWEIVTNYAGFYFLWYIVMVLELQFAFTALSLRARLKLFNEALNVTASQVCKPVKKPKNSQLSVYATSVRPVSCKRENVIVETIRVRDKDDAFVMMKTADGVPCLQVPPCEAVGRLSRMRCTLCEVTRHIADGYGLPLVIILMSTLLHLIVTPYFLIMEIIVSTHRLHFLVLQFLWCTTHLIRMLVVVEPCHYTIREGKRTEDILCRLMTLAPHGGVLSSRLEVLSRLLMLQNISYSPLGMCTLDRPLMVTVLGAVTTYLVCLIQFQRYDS

- stoichiometry N [1]: 4
Molecule: meGFP-BmGr9 (receptor)

- stoichiometry N [2]: 2 and 4
Molecule: BmGr9 silkworm gustatory receptor

Molecule: C[N+](C)(C)CCSS(C)(=O)=O [MTSET, 2-(trimethylammonium)ethyl methanethiosulfonate, bromide]
- two-electrode voltage clamp in Xenopus oocytes, 2.5 mM MTSET, cysteine modificat [3]: whereas the response of I440C was markedly inhibited by MTSET application
